Results taken from patent US8697369B2, “Method for screening a test substance for activating a receptor associated with FGF 21 activity” (National Institute of Advanced Industrial Science and …, priority 2007, dated 2014).
“Also recorded” adds a separate entry of the source. One block for each molecule: values may come before it.

Key:
Type in all cases: cell-based
[1] = tested on: 3T3-L1 fibroblasts forced to express betaKlotho; assay: Phosphorylation of FRS2 and MAPK in undifferentiated 3T3-L1 cells forced to express betaKlotho; settings: 10 μM; pre-treated for 3 hours, then stimulated with FGF21
Experimental: A betaKlotho expression vector produced by the method described in Example 4 and an empty vector used as a control, into which betaKlotho cDNA had not been inserted, were introduced into 3T3-L1 fibroblasts cultured as described in Example 1 by a lipofection method, thereby obtaining Puromycin-resistant clones. These different types of cells were stimulated with FGF21, and 10 minutes after the stimulation, a cell lysate was prepared. The activation of FRS2 and MAPK that were signaling molecules located downstream of FGFR was examined by a Western blotting method.

[2] = target: T1, BaF3 cells that had co-expressed FGFR1c and Klotho (Mus musculus, UniProt O35082+P16092); assay: DNA synthesis in BaF3 cells co-expressing FGFR1c and Klotho; settings: presence or absence of heparin
T1 construct: the entire-length cDNA of mouse FGFR1c had been cloned; expressed in transfected cells; host or cells: BaF3 (mouse pro-B) cells
Experimental: Specifically, BaF3 cell that had co-expressed FGFR1c and betaKlotho and BaF3 cells that had co-expressed FGFR1c and Klotho were prepared by the same transformation method and under the same culture conditions as those applied in Example 4. Thereafter, FGF21 and FGF23 were added to both types of transformed cells in the presence or absence of heparin, and the amount of DNA synthesized was then measured.

[3] = target: T2, FGFR1c/betaKlotho-expressing BaF3 cells (Mus musculus, UniProt P16092+Q99N32); assay: DNA synthesis (thymidine incorporation) in FGFR1c/betaKlotho-expressing BaF3 cells; settings: BaF3 cells expressing FGFR1c and betaKlotho; presence or absence of heparin
T2 construct: the entire-length cDNA of mouse FGFR1c had been cloned; the entire-length cDNA of mouse betaKlotho was cloned into an animal cell expression vector; expressed in transfected cells; host or cells: BaF3 (mouse pro-B) cells
T2 sequence (P16092 22-822): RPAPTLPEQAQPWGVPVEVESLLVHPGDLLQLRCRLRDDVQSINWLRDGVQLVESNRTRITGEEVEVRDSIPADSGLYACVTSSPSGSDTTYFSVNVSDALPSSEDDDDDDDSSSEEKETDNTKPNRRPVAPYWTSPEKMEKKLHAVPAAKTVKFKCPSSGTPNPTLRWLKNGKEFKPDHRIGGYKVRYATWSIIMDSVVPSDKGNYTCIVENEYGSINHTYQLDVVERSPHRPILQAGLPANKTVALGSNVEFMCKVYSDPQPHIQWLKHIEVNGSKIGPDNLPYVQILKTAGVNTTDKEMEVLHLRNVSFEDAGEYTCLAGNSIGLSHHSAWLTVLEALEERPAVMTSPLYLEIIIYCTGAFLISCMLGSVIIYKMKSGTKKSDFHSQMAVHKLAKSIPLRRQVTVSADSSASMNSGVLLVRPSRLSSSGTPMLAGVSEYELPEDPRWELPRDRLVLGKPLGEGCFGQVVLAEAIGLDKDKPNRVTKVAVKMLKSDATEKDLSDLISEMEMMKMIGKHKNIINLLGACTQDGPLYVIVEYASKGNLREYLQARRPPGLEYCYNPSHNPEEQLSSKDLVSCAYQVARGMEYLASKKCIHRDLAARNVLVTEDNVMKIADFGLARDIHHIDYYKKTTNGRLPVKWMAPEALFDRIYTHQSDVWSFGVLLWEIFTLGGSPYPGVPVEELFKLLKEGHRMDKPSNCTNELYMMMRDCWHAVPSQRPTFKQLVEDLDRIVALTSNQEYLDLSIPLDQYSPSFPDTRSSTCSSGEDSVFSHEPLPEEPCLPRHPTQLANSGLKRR
T2 sequence (Q99N32 whole entry): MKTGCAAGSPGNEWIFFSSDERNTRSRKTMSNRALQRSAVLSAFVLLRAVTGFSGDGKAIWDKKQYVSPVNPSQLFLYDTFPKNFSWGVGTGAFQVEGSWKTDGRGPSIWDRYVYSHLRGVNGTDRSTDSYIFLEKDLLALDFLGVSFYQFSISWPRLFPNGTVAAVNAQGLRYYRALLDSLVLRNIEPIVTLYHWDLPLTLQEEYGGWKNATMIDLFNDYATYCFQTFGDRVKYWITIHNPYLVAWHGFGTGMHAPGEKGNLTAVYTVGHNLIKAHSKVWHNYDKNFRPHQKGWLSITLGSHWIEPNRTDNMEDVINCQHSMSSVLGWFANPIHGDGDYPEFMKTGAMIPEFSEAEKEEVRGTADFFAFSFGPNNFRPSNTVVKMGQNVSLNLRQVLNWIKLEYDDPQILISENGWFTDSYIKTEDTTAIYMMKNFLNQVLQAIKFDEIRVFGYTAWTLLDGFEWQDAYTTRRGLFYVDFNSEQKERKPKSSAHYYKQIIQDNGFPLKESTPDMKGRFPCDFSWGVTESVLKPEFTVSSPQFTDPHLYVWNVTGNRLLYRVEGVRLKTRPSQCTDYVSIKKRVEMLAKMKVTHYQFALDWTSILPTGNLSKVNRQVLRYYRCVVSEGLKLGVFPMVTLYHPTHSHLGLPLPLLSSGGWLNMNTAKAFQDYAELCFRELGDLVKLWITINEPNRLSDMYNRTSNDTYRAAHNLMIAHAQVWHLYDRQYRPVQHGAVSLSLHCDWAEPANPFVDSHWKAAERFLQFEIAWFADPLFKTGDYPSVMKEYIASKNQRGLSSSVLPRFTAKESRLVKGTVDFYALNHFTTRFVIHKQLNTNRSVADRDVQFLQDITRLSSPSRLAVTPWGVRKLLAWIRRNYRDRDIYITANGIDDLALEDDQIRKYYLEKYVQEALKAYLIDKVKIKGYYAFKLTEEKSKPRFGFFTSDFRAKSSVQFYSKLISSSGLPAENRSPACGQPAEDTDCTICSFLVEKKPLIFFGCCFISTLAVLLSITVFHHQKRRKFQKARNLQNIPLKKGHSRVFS
Experimental: A commonly used measurement method is a cell growth stimulating activity measurement method described in Ornitz, D. M., Xu, J., Colvin, J. S., McEwen, D. G., MacArthur, C. A., Coulier, F., Gao, G. and Goldfarb, M. (1996) Receptor specificity of the fibroblast growth factor family. J Biol Chem, 271, 15292-15297. The summary thereof is as follows. FGF used as a measurement target is added to a culture solution containing a cultured cell having an FGF receptor on the surface thereof, and the obtained mixture is cultured for a certain period of time. Thereafter, a labeled thymidine is added to the culture solution, followed by further culture for a certain period of time. By measuring the amount of the labeled thymidine incorporated into polymeric DNA during the culture, the degree of FGF to activate DNA synthesis is evaluated. (In the present invention as well, this method was adopted when the activity of FGF21 was measured in Examples 4, 5, 6, 8, 9, and 10.)
FGFR1c-expressing BaF3 cells and FGFR1c- and betaKlotho-expressing BaF3 cells were prepared as follows. In the case of FGFR1c-expressing BaF3 cells, an animal cell expression vector into which the entire-length cDNA of mouse FGFR1c had been cloned (described in Ornitz, D. M., Xu, J., Colvin, J. S., McEwen, D. G., MacArthur, C. A., Coulier, F., Gao, G. and Goldfarb, M. (1996) Receptor specificity of the fibroblast growth factor family. J Biol Chem, 271, 15292-15297.) was introduced into BaF3 cells by an electroporation method. The cells were then cultured in the presence of G418 for approximately 2 weeks, so as to obtain drug-resistant clones. Thereafter, such clones were obtained as those capable of growing as a result of FGF1 stimulation. In the case of both FGFR1c- and betaKlotho-expressing BaF3 cells, the entire-length cDNA of mouse betaKlotho was cloned into an animal cell expression vector, and it was then introduced into the FGFR1c-expressing BaF3 cells. The cells were then cultured in the presence of Puromycin and G418 for approximately 2 weeks, so as to obtain drug-resistant clones. In the case of only betaKlotho-expressing BaF3 cells, a betaKlotho-expressing vector was introduced into BaF3 cells, and Puromycin-resistant clones were then obtained. The BaF3 cells, into which the aforementioned genes had been each introduced, were maintained in an RPMI1640 medium containing 10% FBS and interleukin 3 (IL3, supplied by adding a 5% condition medium of WEHI-3 cells). For the growth stimulation experiment, the cells were washed with an RPMI1640 medium, and they were then suspended in an RPMI1640 medium containing 10% FBS, followed by inoculating the suspension on a culture plate. Thereafter, the resultant cells were used.
Immediately after inoculation, BaF3 cells that had expressed each clone and only FGFR1c were stimulated by addition of FGF21 (open bar) or PBS (filled bar) used as a control in the presence of heparin, and they were then cultured for 42 hours. Thereafter, tritium-labeled thymidine was added to the culture solution, and the culture was further continued for 6 hours. Thereafter, the amount of thymidine incorporated into the cells was measured, so as to evaluate DNA synthesis. A DNA synthesis value obtained when the cells were not stimulated with FGF21 was defined as 1, and the ratio of a DNA synthesis value obtained by stimulating with FGF21 to the aforementioned DNA synthesis value was expressed using magnification. […]

[4] = target: T3, humanized FGFR3c/humanized betaKlotho (hβKlotho)-expressing cells (Homo sapiens, UniProt P22607+Q86Z14, A441S/A461E/A470D/A499P/A500N/A559S/A717S/A734V/A765M/C582S/D512S/D516E/D576E/D580N/D722E/D758Q/D785E/DEL405-414/E426D/E447G/E729D/E768D/F566Y/F579Y/F591S/F767L/G446S/G448T/G548D/G773S/G774F/H721N/I440P/I494L/I698V/I726M/INS417HSQMAVHKLAKSI/INS423TV/INS780T/K420R/K464R/K501R/K583H/L398M/L425A/L457Y/L554I/L645I/L752V/M488L/N428S/N434G/N453G/N644H/P401G/P402T/P436L/P502V/P584N/P778R/Q611K/Q775P/R397K/R399K/R416D/R498K/R568Q/S432N/S468P/S578C/S781C/T435V/T450M/T473V/T504K/T581P/T590S/T753A/T757N/V503T/V523I/V642I/V670I/V751I/V754L); assay: DNA synthesis in humanized FGFR3c/humanized betaKlotho-expressing BaF3 cells; settings: humanized FGFR3c and humanized betaKlotho; 10 μg/ml heparin
T3 construct: expressed in transfected cells; host or cells: BaF3 (mouse pro-B) cells
T3 sequence (P22607 other isoform, or with tags, fused parts or gaps with the stated changes): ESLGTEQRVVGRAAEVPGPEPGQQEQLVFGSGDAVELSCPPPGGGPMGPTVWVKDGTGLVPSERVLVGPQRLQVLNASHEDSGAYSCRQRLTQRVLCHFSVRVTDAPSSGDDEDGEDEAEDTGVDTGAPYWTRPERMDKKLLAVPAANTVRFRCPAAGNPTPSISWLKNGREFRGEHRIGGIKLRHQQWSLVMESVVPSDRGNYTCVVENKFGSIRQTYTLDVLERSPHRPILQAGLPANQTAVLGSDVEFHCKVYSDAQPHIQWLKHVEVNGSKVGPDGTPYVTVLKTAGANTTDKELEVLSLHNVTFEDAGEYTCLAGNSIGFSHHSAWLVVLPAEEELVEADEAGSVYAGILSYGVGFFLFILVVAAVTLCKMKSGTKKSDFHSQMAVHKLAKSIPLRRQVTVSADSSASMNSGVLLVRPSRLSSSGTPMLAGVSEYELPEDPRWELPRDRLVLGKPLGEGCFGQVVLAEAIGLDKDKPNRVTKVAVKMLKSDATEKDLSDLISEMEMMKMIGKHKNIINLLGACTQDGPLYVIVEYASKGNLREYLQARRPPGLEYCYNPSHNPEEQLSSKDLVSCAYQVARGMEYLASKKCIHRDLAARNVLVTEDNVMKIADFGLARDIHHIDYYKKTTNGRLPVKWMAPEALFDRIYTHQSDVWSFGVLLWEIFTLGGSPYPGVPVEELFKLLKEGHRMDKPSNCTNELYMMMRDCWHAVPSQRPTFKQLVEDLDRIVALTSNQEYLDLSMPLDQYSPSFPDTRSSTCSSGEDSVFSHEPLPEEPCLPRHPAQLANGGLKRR
T3 sequence (Q86Z14 whole entry, stated change not applied): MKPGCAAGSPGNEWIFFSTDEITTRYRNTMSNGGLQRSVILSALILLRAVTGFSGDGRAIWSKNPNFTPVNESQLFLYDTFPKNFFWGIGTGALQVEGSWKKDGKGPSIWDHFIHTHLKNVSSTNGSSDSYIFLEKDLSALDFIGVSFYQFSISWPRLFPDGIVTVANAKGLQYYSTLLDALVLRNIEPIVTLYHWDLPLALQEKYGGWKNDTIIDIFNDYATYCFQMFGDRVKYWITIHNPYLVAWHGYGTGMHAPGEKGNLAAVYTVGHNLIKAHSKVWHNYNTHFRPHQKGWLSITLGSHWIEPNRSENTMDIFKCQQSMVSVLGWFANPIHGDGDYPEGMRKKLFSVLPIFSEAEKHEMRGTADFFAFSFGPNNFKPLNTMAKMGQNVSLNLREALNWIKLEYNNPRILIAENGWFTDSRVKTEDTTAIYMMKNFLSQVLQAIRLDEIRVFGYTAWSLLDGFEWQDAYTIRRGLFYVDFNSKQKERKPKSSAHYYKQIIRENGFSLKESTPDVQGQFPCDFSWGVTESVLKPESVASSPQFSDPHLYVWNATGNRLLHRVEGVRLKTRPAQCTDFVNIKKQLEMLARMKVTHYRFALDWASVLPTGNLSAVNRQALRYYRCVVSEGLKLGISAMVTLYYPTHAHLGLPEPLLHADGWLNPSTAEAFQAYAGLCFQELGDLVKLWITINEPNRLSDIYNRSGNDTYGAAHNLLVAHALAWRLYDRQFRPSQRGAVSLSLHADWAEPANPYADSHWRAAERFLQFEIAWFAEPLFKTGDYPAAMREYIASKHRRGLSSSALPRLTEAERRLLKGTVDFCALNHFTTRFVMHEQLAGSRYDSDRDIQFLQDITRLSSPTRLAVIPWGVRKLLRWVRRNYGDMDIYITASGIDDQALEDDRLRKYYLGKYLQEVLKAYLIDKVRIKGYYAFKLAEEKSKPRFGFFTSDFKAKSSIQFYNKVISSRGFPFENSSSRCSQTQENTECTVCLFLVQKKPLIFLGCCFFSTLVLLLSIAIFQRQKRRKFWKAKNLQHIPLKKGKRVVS
Experimental: (§1) The homology between human FGFR3 and mouse FGFR3 at the amino acid sequence level is 93%. […] The cDNA of humanized FGFR3c was prepared from a commercially available human RNA sample (Takara Bio Inc.) by PCR. The sequence of its intracellular portion was substituted with the sequence of humanized FGFR1, and it was then introduced into an expression vector having an SRalpha promoter (pSRalpha). The FGFR3c expression vector was introduced into BaF3 cells by an electroporation method, so as to obtain FGFR3c-expressing BaF3 cells as G418-resistant clones. In the case of FGFR3c/betaKlotho-co-expressing cells, a betaKlotho expression vector was introduced into the FGFR3c-expressing BaF3 cells, so as to obtain the aforementioned cells as Puromycin-resistant clones. In the presence of heparin, humanized FGF21 was added in various types of concentrations to FGFR3c-expressing cells or FGFR3c/betaKlotho-co-expressing cells, and the amount of DNA synthesized was then measured.

[5] = target: T4, humanized FGFR3c (hR3c)-expressing BaF3 cells (Homo sapiens, UniProt P22607, A441S/A461E/A470D/A499P/A500N/A559S/A717S/A734V/A765M/C582S/D512S/D516E/D576E/D580N/D722E/D758Q/D785E/DEL405-414/E426D/E447G/E729D/E768D/F566Y/F579Y/F591S/F767L/G446S/G448T/G548D/G773S/G774F/H721N/I440P/I494L/I698V/I726M/INS417HSQMAVHKLAKSI/INS423TV/INS780T/K420R/K464R/K501R/K583H/L398M/L425A/L457Y/L554I/L645I/L752V/M488L/N428S/N434G/N453G/N644H/P401G/P402T/P436L/P502V/P584N/P778R/Q611K/Q775P/R397K/R399K/R416D/R498K/R568Q/S432N/S468P/S578C/S781C/T435V/T450M/T473V/T504K/T581P/T590S/T753A/T757N/V503T/V523I/V642I/V670I/V751I/V754L); assay: DNA synthesis in humanized FGFR3c-expressing BaF3 cells; settings: humanized FGFR3c only; 10 μg/ml heparin
T4 construct: expressed in transfected cells; host or cells: BaF3 (mouse pro-B) cells; pSRalpha vector
T4 sequence (P22607 other isoform, or with tags, fused parts or gaps with the stated changes): as the sequence (P22607 other isoform, or with tags, fused parts or gaps with the stated changes) above
Experimental: as §1

[6] = target: T5, humanized FGFR1c/humanized betaKlotho (hβKlotho)-expressing cells (Homo sapiens, UniProt P11362+Q86Z14); assay: DNA synthesis in humanized FGFR1c/humanized betaKlotho-expressing BaF3 cells; settings: humanized FGFR1c and humanized betaKlotho; 10 μg/ml heparin
T5 construct: expressed in transfected cells; host or cells: BaF3 (mouse pro-B) cells; pSRalpha (FGFR1c), pcDNA3.1 (betaKlotho)
T5 sequence (P11362 22-822): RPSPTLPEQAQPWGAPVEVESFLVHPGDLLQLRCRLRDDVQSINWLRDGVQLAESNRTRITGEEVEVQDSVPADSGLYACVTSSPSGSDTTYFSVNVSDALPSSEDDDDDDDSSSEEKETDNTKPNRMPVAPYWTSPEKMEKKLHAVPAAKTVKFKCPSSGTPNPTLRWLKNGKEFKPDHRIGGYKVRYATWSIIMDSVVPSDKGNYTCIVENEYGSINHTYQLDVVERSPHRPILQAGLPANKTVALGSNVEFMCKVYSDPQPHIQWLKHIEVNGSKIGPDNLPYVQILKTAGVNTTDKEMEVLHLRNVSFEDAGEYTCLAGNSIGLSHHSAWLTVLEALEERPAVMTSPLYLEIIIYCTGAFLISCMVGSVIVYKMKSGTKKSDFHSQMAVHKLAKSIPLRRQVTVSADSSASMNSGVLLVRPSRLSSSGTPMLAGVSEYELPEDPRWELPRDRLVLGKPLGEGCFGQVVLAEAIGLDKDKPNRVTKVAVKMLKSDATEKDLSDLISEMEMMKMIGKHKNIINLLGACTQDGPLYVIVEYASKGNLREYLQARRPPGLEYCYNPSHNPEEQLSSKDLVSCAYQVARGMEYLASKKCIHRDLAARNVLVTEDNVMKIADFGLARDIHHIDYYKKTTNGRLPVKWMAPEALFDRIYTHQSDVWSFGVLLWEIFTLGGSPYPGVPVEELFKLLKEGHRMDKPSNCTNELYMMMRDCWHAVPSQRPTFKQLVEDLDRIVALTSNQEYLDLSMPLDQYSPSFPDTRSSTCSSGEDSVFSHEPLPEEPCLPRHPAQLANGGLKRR
T5 sequence (Q86Z14 whole entry): as the sequence (Q86Z14 whole entry, stated change not applied) above
Source text: (§2) In Examples 4, 5, 6, and 7, it was shown that FGF21 reacts with FGFR1c in the presence of betaKlotho. FGFR1c, betaKlotho, FGF21, and the like, which were used in an actual experimental system, were all derived from mice used as typical mammalian models. With regard to these molecules, the homology between a human and a mouse at the amino acid sequence level is extremely high (80% in FGF21, 78% in betaKlotho, and 98% in FGFR1). As a result, naturally, there are no problems regarding the compatibility of the human with the mouse, and thus it is clear that the same results as those from a murine molecule will be obtained even using a humanized molecule. In the present example, as a precautionary measure, an experimental system using a humanized molecule was constructed to confirm such respect, and an experiment was carried out. Specifically, the humanized cDNA of FGFR1c and that of betaKlotho were prepared from a commercially available human RNA sample (Takara Bio Inc.) by PCR. FGFR1c was introduced into an expression vector having an SRalpha promoter (pSRalpha), and betaKlotho was introduced into an expression vector having a CMV promoter (pcDNA3.1; Invitrogen). […] In the presence of heparin, humanized FGF21 was added in various types of concentrations to FGFR1c-expressing cells or FGFR1c/betaKlotho-co-expressing cells, and the amount of DNA synthesized was then measured.

[7] = target: T6, humanized FGFR1c (hR1c)-expressing BaF3 cells (Homo sapiens, UniProt P11362); assay: DNA synthesis in humanized FGFR1c-expressing BaF3 cells; settings: humanized FGFR1c only; 10 μg/ml heparin
T6 construct: expressed in transfected cells; host or cells: BaF3 (mouse pro-B) cells; pSRalpha vector
T6 sequence (P11362 22-822): as the sequence (P11362 22-822) above
Source text: as §2

Molecule: Cc1c[nH]c(/C=C2\C(=O)Nc3ccccc32)c1CCC(=O)O [SU5402, reference compound]
degree of phosphorylation of FRS2 and MAPK on FGF21 stimulation after inhibitor pre-treatment [1]: decreased

amount of DNA synthesized [2]: able to act on FGFR1c-expressing cells
DNA synthesis (thymidine incorporated into the cells) [3]: did not react with FGFR1c
B1: FGF23: FGF having high structural similarity to FGF21; Klotho acts as its co-receptor (protein, UniProt Q9GZV9 25-251, looked up)
Fibroblast growth factor 23: YPNASPLLGSSWGGLIHLYTATARNSYHLQIHKNGHVDGAPHQTIYSALMIRSEDAGFVVITGVMSRRYLCMDFRGNIFGSHYFDPENCRFQHQTLENGYDVYHSPQYHFLVSLGRAKRAFLPGMNPPPYSQFLSRRNEIPLIHFNTPIPRRHTRSAEDDSERDPLNVLKPRARMTPAPASCSQELPSAEDNSPMASDPLGVVRGGRVNTHAGGTGPEGCRPFAKFI

B2: humanized FGF21: FGF21 protein with human amino acid sequence, prepared in Escherichia coli from human cDNA (protein)
chain: HPIPDSSPLLQFGGQVRQRYLYTDDAQQTEAHLEIREDGTVGGAADQSPESLLQLKALKPGVIQILGVKTSRFLCQRPDGALYGSLHFDPEACSFRELLLEDGYNVYQSEAHGLPLHLPGNKSPHRDPAPRGPARFLPLPGLPPALPEPPGILAPQPPDVGSSDPLSMVGPSQGRSPSYAS
amount of DNA synthesized (thymidine incorporation) [4]: activated; also recorded: increased the amount of thymidine incorporated into the cells in a dose-dependent manner
amount of DNA synthesized (thymidine incorporation) [5]: activated only the FGFR3c/betaKlotho-co-expressing cells
amount of DNA synthesized (thymidine incorporation) [6]: activated; also recorded: increased the amount of thymidine incorporated into the cells in a dose-dependent manner
amount of DNA synthesized (thymidine incorporation) [7]: activated only the FGFR1c/betaKlotho-co-expressing cells
